# Tests used:
# recombinant human DP4 = recombinant human DP4 (Homo sapiens, UniProt P27487); assay: N-terminal degradation of human MCP-2, MCP-3 and MCP-4 by DP4, Maldi-TOF mass spectrometry; assay type: in vitro ADME; conditions: for truncation by DP4 of uncyclized variants starting with N-terminal glutamine: recombinant human DP4, 30° C.; for proteolytic degradation by DP4 with N-terminal pGlu-residue: pre-incubated with recombinant human QC 3 h, then DP4
# Method: Resulting DP4 cleavage products were analyzed using Maldi-TOF mass spectrometry after 0 min, 15 min, 30 min, 1 h, 2 h, 4 h and 24 h.
# (§1) MCP-3 was either pre-incubated with recombinant human QC (0.0006 mg/ml) for 3 h at 30° C. and subsequently incubated with recombinant human DP4 (0.00012 mg/ml) at 30° C. or incubated with recombinant human DP4 (0.00012 mg/ml) without prior QC application. Resulting DP4 cleavage products were analyzed using Maldi-TOF mass spectrometry after 0 min, 15 min, 30 min, 1 h, 2 h, 4 h and 24 h.
# as §1, with “MCP-4” for “MCP-3”, “(0.00006” for “(0.00012”
# human THP-1 monocytes = assay: TransWell chemotaxis assay; assay type: cell-based; conditions: for influence of pGlu-formation at the N-terminus on chemotactic potency: compared to the respective glutamine-precursors, FIG. 11; for chemotactic potency of N-truncated DP4 cleavage products: truncation by 2 amino acids, FIG. 13; for MCP-1 concentrations needed to elicit the maximum response: after incubation with human DP4, with (pGlu^1) or without (Gln^1) QC pre-incubation, FIG. 12
# Method: The chemotaxis assay was performed using 24 well TransWell plates with a pore size of 5 μm (Corning). THP-1 cells were suspended in RPMI1640 in a concentration of 1*10^6 cells/100 μl and applied in 100 μl aliquots to the upper chamber. Cells were allowed to migrate towards the chemoattractant for 2 h at 37° C. Subsequently, cells from the upper chamber were discarded and the lower chamber was mixed with 50 μl 70 mM EDTA in PBS and incubated for 15 min at 37° C. to release cells attached to the membrane. Afterwards, cells migrated to the lower chamber were counted using a cell counter system (Schärfe System). The chemotactic index was calculated by dividing cells migrated to the stimulus from cells migrated to the negative control.
# MCP-1 starting with glutamine 1 (Gln^1-MCP-1) (Peprotech) was incubated with recombinant human QC to generate pGlu^1-MCP-1, or with human recombinant DP4 to generate Asp^3-MCP-1. Concentrations of 1, 5, 10, 50, 100, 500 and 1000 ng/ml of the generated MCP-1 variants were tested using the THP-1 chemotaxis assay (n=3).
# MCP-1 with N-terminal glutamine (Gln^1-MCP-1) (Peprotech) was incubated with recombinant human QC and DP4 (Gln^1-MCP-1+QC+DP4), human recombinant DP4 alone (Gln^1-MCP+DP4) and with recombinant human QC in combination with 10 μM of QC-inhibitor 1-(3-(1H-imidazol-1-yl)propyl)-3-(3,4-dimethoxyphenyl)thiourea hydrochloride and DP4 (Gln^1-MCP-1+QC+QCI+DP4). Concentrations of 1, 5, 10, 50, 100, 500 and 1000 ng/ml of generated MCP-1 variants were tested using chemotaxis assay (n=3).
# Concentrations of 1, 5, 10, 50, 100, 500 and 1000 ng/ml of a particular MCP were tested using chemotaxis assay (n=3).
# For the generation of the DP4 cleavage product, the respective MCPs were incubated with human recombinant DP4 at a 1:100 dilution for 2 h at 30° C. prior to assay. Concentrations of 1, 5, 10, 50, 100, 500 and 1000 ng/ml of a particular MCP were tested using chemotaxis assay (n=3).
# MCP-1 receptors = MCP-1 receptors (Homo sapiens, UniProt P41597); conditions: cited from earlier work
# [1] = test system: DP4 or a DP4-like activity in human serum; assay: Degradation of Gln1-MCP-1 in human serum in presence of DP4 inhibitor; assay type: biochemical; conditions: 9.6 μM inhibitor, 24 h, FIG. 7C
# Method: (§2) For cyclization of the N-terminal glutamine residue into pyroglutamate, MCP-1 was incubated with recombinant human QC for 3 h prior to assay start. In addition, Gln^1-MCP-1 was incubated in human serum in the presence of 9.6 μM DP4 Inhibitor Isoleucyl-Thiazolidide (P32/98) for 24 h (C). The cleavage products were analyzed after 0 min, 10 min, 30 min, 1 h, 2 h, 3 h 5 h and 7 h for Gln^1-MCP-1, 0 min, 30 min, 1 h, 2 h, 3 h 5 h, 7 h and 24 h for pGlu^1-MCP-1 and 0 min, 1 h, 2 h, 3 h, 5 h, 7 h and 24 h for Gln^1-MCP-1 in combination with Isoleucyl-Thiazolidide using Maldi-TOF mass spectrometry.
# (§3) Human recombinant MCP-1 carrying an N-terminal glutaminyl residue (Peprotech) was dissolved in 25 mM Tris/HCl, pH 7.6, in a concentration of 100 μg/ml. MCP-1 was either pre-incubated with recombinant human QC (0.006 mg/ml) for 3 h at 30° C. and subsequently incubated with human serum at 30° C. or incubated with human serum without addition of QC. The cleavage products were analyzed using Maldi-TOF mass spectrometry after 0 min, 10 min, 30 min, 1 h, 2 h, 3 h 5 h and 7 h for Gln^1-MCP-1 and 0 min, 30 min, 1 h, 2 h, 3 h 5 h, 7 h and 24 h for pGlu^1-MCP-1.
# [2] = N-terminal degradation of human MCP-1 in human serum, Maldi-TOF mass spectrometry; assay type: in vitro ADME
# Method: as §2
# Matrix-assisted laser desorption/ionization mass spectrometry was carried out using the Voyager De-Pro (Applied Biosystems, Darmstadt) with a linear time of flight analyzer. The instrument was equipped with a 337 nm nitrogen laser, a potential acceleration source and a 1.4 m flight tube. Detector operation was in the positive-ion mode. Samples (5 μl) were mixed with equal volumes of the matrix solution. For matrix solution sinapinic acid was used, prepared by solving 20 mg sinapinic acid (Sigma-Aldrich) in 1 ml acetonitrile/0.1% TFA in water (1/1, v/v). A small volume (≈1 μl) of the matrix-analyte-mixture was transferred to a probe tip.
# as §3
# [3] = incubation with human serum without QC pre-incubation, FIG. 7A
# Chain of recombinant human DP4 (P27487 whole entry, the tested form may be a part): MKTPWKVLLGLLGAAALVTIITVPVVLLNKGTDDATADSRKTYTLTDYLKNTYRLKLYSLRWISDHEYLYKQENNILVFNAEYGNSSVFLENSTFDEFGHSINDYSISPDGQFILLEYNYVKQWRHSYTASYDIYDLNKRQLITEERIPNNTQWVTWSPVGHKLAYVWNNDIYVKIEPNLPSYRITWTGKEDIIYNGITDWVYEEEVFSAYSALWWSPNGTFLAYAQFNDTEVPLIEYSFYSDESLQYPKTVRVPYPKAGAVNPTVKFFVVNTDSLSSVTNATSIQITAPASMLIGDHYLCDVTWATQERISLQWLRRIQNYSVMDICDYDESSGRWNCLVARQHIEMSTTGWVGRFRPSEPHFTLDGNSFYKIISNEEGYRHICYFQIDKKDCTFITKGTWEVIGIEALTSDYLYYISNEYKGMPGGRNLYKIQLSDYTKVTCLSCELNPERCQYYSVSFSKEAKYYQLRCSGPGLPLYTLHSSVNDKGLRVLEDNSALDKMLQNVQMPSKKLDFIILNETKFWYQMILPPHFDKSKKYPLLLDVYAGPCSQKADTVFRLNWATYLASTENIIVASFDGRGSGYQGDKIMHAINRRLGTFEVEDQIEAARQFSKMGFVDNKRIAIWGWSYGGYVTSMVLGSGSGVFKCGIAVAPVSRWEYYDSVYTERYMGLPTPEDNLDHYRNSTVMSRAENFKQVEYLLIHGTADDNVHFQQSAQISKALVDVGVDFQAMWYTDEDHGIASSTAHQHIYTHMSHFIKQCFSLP
# Chain of MCP-1 receptors (P41597 whole entry): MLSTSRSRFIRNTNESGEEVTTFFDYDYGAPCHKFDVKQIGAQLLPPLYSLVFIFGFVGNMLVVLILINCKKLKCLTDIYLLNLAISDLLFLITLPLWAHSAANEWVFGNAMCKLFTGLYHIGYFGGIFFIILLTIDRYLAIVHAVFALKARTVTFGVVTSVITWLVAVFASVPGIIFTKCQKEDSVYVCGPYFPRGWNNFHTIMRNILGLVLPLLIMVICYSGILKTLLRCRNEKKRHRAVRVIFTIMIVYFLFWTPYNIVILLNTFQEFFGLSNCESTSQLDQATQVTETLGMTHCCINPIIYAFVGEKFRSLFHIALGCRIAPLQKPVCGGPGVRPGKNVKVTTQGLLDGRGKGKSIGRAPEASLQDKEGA
compound,measurement,setting,value
MCP-2: Human recombinant MCP-2 (SEQ ID NO: 11) carrying an N-terminal glutaminyl residue (Peprotech),truncation by DP4 of uncyclized variants starting with N-terminal glutamine,recombinant human DP4,readily truncated
same,influence of pGlu-formation at the N-terminus on chemotactic potency,human THP-1 monocytes,no influence
same,chemotactic potency of N-truncated DP4 cleavage products,human THP-1 monocytes,partial inactivation
"MCP-1, 1-10: peptide corresponding to MCP-1, 1-10 (QPDAINAPVT; UniProt P13500 24-33, looked up, fragment) [reference compound]",receptor-binding activities,MCP-1 receptors,lacked detectable receptor-binding activities
"CCC(C)C(N)C(=O)N1CCSC1 (stereo not shown) [Isoleucyl-Thiyzolidide, Isoleucyl-Thiazolidide]",N-terminal degradation of MCP-1 in serum,[1],prevents the N-terminal degradation
MCP-3: Human recombinant MCP-3 (SEQ ID NO: 12) carrying an N-terminal glutaminyl residue (Peprotech),proteolytic degradation by DP4 with N-terminal pGlu-residue,recombinant human DP4,protects
same,truncation by DP4 of uncyclized variants starting with N-terminal glutamine,recombinant human DP4,readily truncated
same,influence of pGlu-formation at the N-terminus on chemotactic potency,human THP-1 monocytes,no influence
same,chemotactic potency of N-truncated DP4 cleavage products,human THP-1 monocytes,partial inactivation
"MCP-1: monocyte chemotactic protein-1, CCL2; form in the cited binding study not stated",Kd,MCP-1 receptors,2.8 nM
Gln1-MCP-1: Recombinant human MCP-1(1-76) (SEQ ID NO: 1) starting with an N-terminal glutamine (Peprotech),"final ratio, full-length pGlu1-MCP-1",[2]; [3],~40%
same,"final ratio, truncated Asp3-MCP-1",[2]; [3],approx. 60%
same,MCP-1 concentrations needed to elicit the maximum response,human THP-1 monocytes,500 to 1000 ng/mL
"pGlu1-MCP-1: human MCP-1 with N-terminal pyroglutamic acid, generated by incubation of Gln1-MCP-1 with recombinant human QC",degradation in human serum,"[2]; pre-incubation with human QC, chosen time-frame (24 h) and dilution of the serum, FIG. 7B",no degradation
same,MCP-1 concentrations needed to elicit the maximum response,human THP-1 monocytes,50 to 100 ng/mL
MCP-4: Human recombinant MCP-4 (SEQ ID NO: 13) carrying an N-terminal glutaminyl residue (Peprotech),proteolytic degradation by DP4 with N-terminal pGlu-residue,recombinant human DP4,protects
same,truncation by DP4 of uncyclized variants starting with N-terminal glutamine,recombinant human DP4,readily truncated
same,influence of pGlu-formation at the N-terminus on chemotactic potency,human THP-1 monocytes,slightly increases
same,chemotactic potency of N-truncated DP4 cleavage products,human THP-1 monocytes,partial inactivation
